Target: MmRIPK3 (S02-H303) kinase domain, N-terminal histidine tag (mouse)
Assay: SEC

stoichiometry N: 2
Substance: MmRIPK3 (S02-H303) kinase domain, N-terminal histidine tag (domain or fragment)

Source: paper PMC6310155
